Measurements published in patent US7662584, “Increased production of secreted proteins by recombinant eukaryotic cells” (Danisco US Inc.).

T1: HAC1-malE fusion (HAC1 DNA binding domain and leucine zipper fragment) (Trichoderma reesei, UniProt Q8TFF3 SEQ:84-203)
T1 chain: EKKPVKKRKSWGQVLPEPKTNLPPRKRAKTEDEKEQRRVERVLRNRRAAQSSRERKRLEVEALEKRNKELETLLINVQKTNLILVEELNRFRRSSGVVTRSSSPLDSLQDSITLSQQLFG

B1: pdiUPREII (dsDNA)
DNA 1: GGATCTTGCATAGCCAGATGTGGCCTCGATTGACT
DNA 2: AGTCAATCGAGGCCACATCTGGCTATGCAAGATCC
B2: bipUPREII (dsDNA)
DNA 1: GGGCGTGGAGAAGCGAGAAGTGGCCTCTTCTTCTCC
DNA 2: GGAGAAGAAGAGGCCACTTCTCGCTTCTCCACGCCC
B3: pdiUPREI (dsDNA)
DNA 1: GGTACCTGCTAACCAGCGCGGCATGATTCAAC
DNA 2: GTTGAATCATGCCGCGCTGGTTAGCAGGTACC
B4: bipUPREI (dsDNA)
DNA 1: GGATTAGAAAACGCCAACGTGTCCATAACGGTC
DNA 2: GACCGTTATGGACACGTTGGCGTTTTCTAATCC
B5: pdiUPREI+II (dsDNA)
DNA 1: CGGCTGAACCAGCGCGGCAGCCAGATGTGGCCAAAGGG
DNA 2: CCCTTTGGCCACATCTGGCTGCCGCGCTGGTTCAGCCG

Key:
Conditions in all cases: tags: N-terminal MBP (malE), pMAL-p2X, E. coli; label: 32P-dCTP Klenow fill-in
[1] = biological target: T1, HAC1-malE fusion (HAC1 DNA binding …); assay: EMSA; specific binding; 10 mM MgCl2, 50 mM KCl, pH 6.9, poly(dIdC), 25 C
Description: (§1) FIG. 16 depicts bandshift experiments, where the binding of the malE-HAC1 fusion protein to the putative UPR element sequences found in *T. reesei* pdi1 and bip1 promoters was tested. The oligonucleotides used in the binding reactions are shown on the top. Lanes 1, 12 and 16, no protein; lanes 2, 4-7, 8-11. 13-15 and 17-19. malE-HAC1 fusion protein; lane 3. malE protein alone. The binding was competed with unlabelled oligonucleotides on lanes 5 (20× excess); lanes 6, 10, 14 and 18 (50× excess) and lanes 7, 11, 15, and 19 (200× excess). Alignment of the UPR element sequences that bind the HAC1-malE protein is shown below wherein the sequence of pdiUPREII is set forth in SEQ ID No: 61, the sequence of bipUPREI is set forth in SEQ ID No. 62, and the sequence of bipUPREII is set forth in SEQ ID No. 63.
The oligonucleotides used in binding reactions were annealed in the concentration of […] in 50 mM Tris, pH 8.0, 10 mM MgCl_2, 1 mM spermidine and 5 mM DTT by heating them at 65° C. for 10 minutes and letting them cool down to room temperature during 2 hours. The oligonucleotides were labelled by incubating 100 ng of the annealed oligonucleotide in 10 mM Tris, pH 8.0, 5 mM MgCl_2 with 20 μCi of ^32P-dCTP and 2.5 U Klenow polymerase (Boehringer Mannheim) at 37° C. for 30 minutes. The binding reactions between the oligonucleotides having the putative UPR elements and the proteins were carried out with 0.5-2 μg of the HAC1-malE fusion protein or 2 μg of the malE protein and 1 ng of the annealed and labelled oligonucleotide in a mixture containing 20 mM HEPES, pH 6.9, 50 mM KCl, 10 mM MgCl_2, 0.25 mM EDTA, 0.5 mM DTT, 2% Ficoll, 5% glycerol and 100 μg/ml poly(dIdC) DNA. The competing oligonucleotides were used in 20-200 times excess of the labelled oligonucleotide. The binding eaction mixtures were incubated for 30 minutes at 25° C. and run in a 5% polyacrylamide gel with 10% glycerol in 12.5 mM Tris-borate, pH 8.3, 0.6 mM EDTA for three hours. The gel was dried on a filter paper and exposed onto an X-ray film.

[2] = biological target: T1, HAC1-malE fusion (HAC1 DNA binding …); assay: EMSA; no binding at all; 10 mM MgCl2, 50 mM KCl, pH 6.9, poly(dIdC), 25 C
Description: as §1
(§2) The oligonucleotides used in binding reactions were annealed in the concentration of […] in 50 mM Tris, pH 8.0, 10 mM MgCl_2, 1 mM spermidine and 5 mM DTT by heating them at 65° C. for 10 minutes and letting them cool down to room temperature during 2 hours. The oligonucleotides were labelled by incubating 100 ng of the annealed oligonucleotide in 10 mM Tris, pH 8.0, 5 mM MgCl_2 with 20 μCi of ^32P-dCTP and 2.5 U Klenow polymerase (Boehringer Mannheim) at 37° C. for 30 minutes. […]

[3] = biological target: T1, HAC1-malE fusion (HAC1 DNA binding …); assay: EMSA; competed by excess unlabelled oligo; 10 mM MgCl2, 50 mM KCl, pH 6.9, poly(dIdC), 25 C
Description: as §1, §2

Row | Binder | binding result [1] | further results
1 | B1 | binds | 
2 | B2 | binds | 
3 | B3 |  | binding result [2]: no binding
4 | B4 | binds | 
5 | B5 |  | binding result [3]: binds
